The source of these data is IntAct's records for PubMed 19468300.

B1: Protein ECT2 (Homo sapiens), Q9H8V3-4 (parent)
chain: MAENSVLTSTTGRTSLADSSIFDSKVTEISKENLLIGSTSYVEEEMPQIETRVILVQEAGKQEELIKALKDIKVGFVKMESVEEFEGLDSPEFENVFVVTDFQDSVFNDLYKADCRVIGPPVVLNCSQKGEPLPFSCRPLYCTSMMNLVLCFTGFRKKEELVRLVTLVHHMGGVIRKDFNSKVTHLVANCTQGEKFRVAVSLGTPIMKPEWIYKAWERRNEQDFYAAVDDFRNEFKVPPFQDCILSFLGFSDEEKTNMEEMTEMQGGKYLPLGDERCTHLVVEENIVKDLPFEPSKKLYVVKQEWFWGSIQMDARAGETMYLYEKANTPELKKSVSMLSLNTPNSNRKRRRLKETLAQLSRETDVSPFPPRKRPSAEHSLSIGSLLDISNTPESSINYGDTPKSCTKSSKSSTPVPSKQSARWQVAKELYQTESNYVNILATIIQLFQVPLEEEGQRGGPILAPEEIKTIFGSIPDIFDVHTKIKDDLEDLIVNWDESKSIGDIFLKYSKDLVKTYPPFVNFFEMSKETIIKCEKQKPRFHAFLKINQAKPECGRQSLVELLIRPVQRLPSVALLLNDLKKHTADENPDKSTLEKAIGSLKEVMTHINEDKRKTEAQKQIFDVVYEVDGCPANLLSSHRSLVQRVETISLGEHPCDRGEQVTLFLFNDCLEIARKRHKVIGTFRSPHGQTRPPASLKHIHLMPLSQIKKVLDIRETEDCHNAFALLVRPPTEQANVLLSFQMTSDELPKENWLKMLCRHVANTICKADAENLIYTADPESFEVNTKDMDSTLSRASRAIKKTSKKVTRAFSFSKTPKRALRRALMTSHGSVEGRSPSSNDKHVMSRLSSTSSLAGIPSPSLVSLPSFFERRSHTLSRSTTHLI
partner: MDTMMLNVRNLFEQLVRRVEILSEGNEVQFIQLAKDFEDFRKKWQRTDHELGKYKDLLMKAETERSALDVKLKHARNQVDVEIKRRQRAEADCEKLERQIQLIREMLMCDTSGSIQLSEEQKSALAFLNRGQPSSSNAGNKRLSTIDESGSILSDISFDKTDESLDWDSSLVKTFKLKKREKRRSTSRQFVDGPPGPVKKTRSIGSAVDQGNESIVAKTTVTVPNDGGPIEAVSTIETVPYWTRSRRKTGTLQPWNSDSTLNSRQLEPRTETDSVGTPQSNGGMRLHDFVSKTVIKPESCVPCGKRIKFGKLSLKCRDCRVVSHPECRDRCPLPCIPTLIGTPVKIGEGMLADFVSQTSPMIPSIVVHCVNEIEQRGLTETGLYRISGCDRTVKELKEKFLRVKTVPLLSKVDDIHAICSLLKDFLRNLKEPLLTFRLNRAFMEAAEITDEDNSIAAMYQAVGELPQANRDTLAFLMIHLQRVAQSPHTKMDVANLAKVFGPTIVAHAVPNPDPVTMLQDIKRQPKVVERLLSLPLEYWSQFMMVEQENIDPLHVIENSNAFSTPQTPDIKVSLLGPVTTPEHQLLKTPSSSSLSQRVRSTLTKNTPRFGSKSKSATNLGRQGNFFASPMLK
B2: Protein regulator of cytokinesis 1 (Homo sapiens), O43663 (parent)
chain: MRRSEVLAEESIVCLQKALNHLREIWELIGIPEDQRLQRTEVVKKHIKELLDMMIAEEESLKERLIKSISVCQKELNTLCSELHVEPFQEEGETTILQLEKDLRTQVELMRKQKKERKQELKLLQEQDQELCEILCMPHYDIDSASVPSLEELNQFRQHVTTLRETKASRREEFVSIKRQIILCMEALDHTPDTSFERDVVCEDEDAFCLSLENIATLQKLLRQLEMQKSQNEAVCEGLRTQIRELWDRLQIPEEEREAVATIMSGSKAKVRKALQLEVDRLEELKMQNMKKVIEAIRVELVQYWDQCFYSQEQRQAFAPFCAEDYTESLLQLHDAEIVRLKNYYEVHKELFEGVQKWEETWRLFLEFERKASDPNRFTNRGGNLLKEEKQRAKLQKMLPKLEEELKARIELWEQEHSKAFMVNGQKFMEYVAEQWEMHRLEKERAKQERQLKNKKQTETEMLYGSAPRTPSKRRGLAPNTPGKARKLNTTTMSNATANSSIRPIFGGTVYHSPVSRLPPSGSKPVAASTCSGKKTPRTGRHGANKENLELNGSILSGGYPGSAPLQRNFSINSVASTYSEFAKDPSLSDSSTVGLQRELSKASKSDATSGILNSTNIQS
B3: Rac GTPase-activating protein 1 (Homo sapiens), Q9H0H5 (parent)
chain: B1 partner
partner: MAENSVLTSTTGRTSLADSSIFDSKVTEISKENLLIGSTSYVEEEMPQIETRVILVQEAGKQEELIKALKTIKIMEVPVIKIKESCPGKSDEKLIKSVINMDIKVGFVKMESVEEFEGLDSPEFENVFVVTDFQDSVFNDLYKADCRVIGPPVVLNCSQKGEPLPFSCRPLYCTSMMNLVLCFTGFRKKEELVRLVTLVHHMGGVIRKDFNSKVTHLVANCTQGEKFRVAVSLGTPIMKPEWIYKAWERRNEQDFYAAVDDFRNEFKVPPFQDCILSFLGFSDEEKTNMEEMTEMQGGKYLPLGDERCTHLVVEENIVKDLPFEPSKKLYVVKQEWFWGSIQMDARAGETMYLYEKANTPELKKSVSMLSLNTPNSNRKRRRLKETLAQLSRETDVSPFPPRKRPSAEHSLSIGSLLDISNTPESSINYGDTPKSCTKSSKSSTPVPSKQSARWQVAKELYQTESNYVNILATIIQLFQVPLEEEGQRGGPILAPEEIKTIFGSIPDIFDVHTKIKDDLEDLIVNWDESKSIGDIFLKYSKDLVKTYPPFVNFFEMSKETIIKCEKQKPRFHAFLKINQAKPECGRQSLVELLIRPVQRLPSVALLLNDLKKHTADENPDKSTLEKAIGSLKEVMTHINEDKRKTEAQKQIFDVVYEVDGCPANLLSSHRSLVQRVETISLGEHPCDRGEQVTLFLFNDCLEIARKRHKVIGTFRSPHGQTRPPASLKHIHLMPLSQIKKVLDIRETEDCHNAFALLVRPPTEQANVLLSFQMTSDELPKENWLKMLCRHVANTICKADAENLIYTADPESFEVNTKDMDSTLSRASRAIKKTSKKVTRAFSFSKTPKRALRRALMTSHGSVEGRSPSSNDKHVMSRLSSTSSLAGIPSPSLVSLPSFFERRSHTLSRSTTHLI

Variants of B1 are the subject of one assay. To be noted: with rgap1_human RACGAP1, Q9H0H5.
For T153A, the “effect of a mutation on the interaction” value is on record as “disrupting interaction strength”.
For T153A;K195A, the “effect of a mutation on the interaction” value is on record as “disrupting interaction strength”.
On to K195A, for which the “effect of a mutation on the interaction” value is listed as “disrupting interaction”.

A further assay covers variants of B2. To be noted: with plk1_human PLK1, P53350.
Sequence of plk1_human PLK1, P53350 (P53350 whole entry): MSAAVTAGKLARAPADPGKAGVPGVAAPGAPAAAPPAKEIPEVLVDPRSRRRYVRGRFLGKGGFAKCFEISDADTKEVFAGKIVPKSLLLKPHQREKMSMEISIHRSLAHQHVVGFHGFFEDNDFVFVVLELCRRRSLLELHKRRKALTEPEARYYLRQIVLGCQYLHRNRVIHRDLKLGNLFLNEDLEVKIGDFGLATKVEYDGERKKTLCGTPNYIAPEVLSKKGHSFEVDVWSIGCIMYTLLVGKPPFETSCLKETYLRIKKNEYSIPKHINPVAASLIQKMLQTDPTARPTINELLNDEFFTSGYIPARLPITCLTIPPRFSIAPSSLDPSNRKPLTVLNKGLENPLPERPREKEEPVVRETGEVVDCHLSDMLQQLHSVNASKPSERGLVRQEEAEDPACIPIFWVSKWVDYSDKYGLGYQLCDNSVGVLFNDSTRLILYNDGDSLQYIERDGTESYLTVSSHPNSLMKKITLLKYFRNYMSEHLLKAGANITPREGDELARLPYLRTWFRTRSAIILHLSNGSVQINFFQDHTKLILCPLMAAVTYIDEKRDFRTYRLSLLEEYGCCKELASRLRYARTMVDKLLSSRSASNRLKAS
On to S615A;T616A, for which the “effect of a mutation on the interaction” value is recorded as “disrupting interaction strength”.

Variants of B3 are the subject of the next assay. To be noted: with ect2_human ECT2, Q9H8V3.
S149A;S157A;S164A;S170A: the “effect of a mutation on the interaction” value was “disrupting interaction”.
